This is an account of results in PMC6757426, “Stability and flexibility of full-length human oligodendrocytic QKI6” (BMC Research Notes, 2019).

The data set deals with the molecule itself. As to the kind of experiment: SEC-MALS; Superdex 200 pg increase 10/300GL, 20 mM Tris-HCl, 300 mM NaCl, 0.5 mM TCEP, pH 8.0; 200 ug QKI6 injected at 0.4 ml/min; no RNA. A general note: SEC sorts molecules by how far they enter the pores of the column.

B1: Quaking isoform 6 (QKI6), full-length human (natural protein, UniProt Q96PU8-9 1-319, looked up)
chain: MVGEMETKEKPKPTPDYLMQLMNDKKLMSSLPNFCGIFNHLERLLDEEISRVRKDMYNDTLNGSTEKRSAELPDAVGPIVQLQEKLYVPVKEYPDFNFVGRILGPRGLTAKQLEAETGCKIMVRGKGSMRDKKKEEQNRGKPNWEHLNEDLHVLITVEDAQNRAEIKLKRAVEEVKKLLVPAAEGEDSLKKMQLMELAILNGTYRDANIKSPALAFSLAATAQAAPRIITGPAPVLPPAALRTPTPAGPTIMPLIRQIQTAVMPNGTPHPTAAIVPPGPEAGLIYTPYEYPYTLAPATSILEYPIEPSGVLGMAFPTKG
notes: Quaking isoform 6 (QKI6), human, UniProt Q96PU8-9, amino acids 1-319; calculated molecular weight of the construct 35,187.8 Da; also called full-length QKI6; human QKI6; source: E. coli BL21(DE3), purified (Ni-NTA, TEV digestion, second Ni-NTA, gel filtration on Superdex 200)
As usually defined, the stoichiometry N is the number of molecules, sites or subunits per partner or assembly. As to B1, the “stoichiometry N” value came to 2.
